Reference: US20210292393A1 (published 2021)

Columns and labels:
[1] = target: full-length trimeric SARS-CoV spike protein (SARS-CoV, UniProt P59594 14-1190)
[2] = target: SARS-CoV-2 full length spike protein (wild type) (SARS-CoV-2, UniProt P0DTC2 14-1208)

B1: antibody 265 (antibody, V domains shown)
VH: EVQLVQSGAEVKKPGATVKVSCKFSGDTFSHYYIHWVQQAPGKGLEWMGLVDPQDGESEYAQKFQGKVTITADTSIDTSYLEVTSLRFDDTAFYFCATRGMSGAFDRWGQGTLVTVSS
VL: DIVMTQSPDSLAVSLGERATINCKSSQSILSTSNNKNYLAWYQQKPGQPPKLLIYWASTRESGVPDRFSGGGSGTDFTLTISSLQAEDVAVYYCQQYYRTAYTTPIYTFGQGTKLEIK
[1]
  median fluorescence intensity, fold over isotype control: 1.09 fold over isotype

B2: antibody 265 (antibody, V domains shown)
VH: EVQLVQSGAEVKKPGATVKVSCKFSGDTFSHYYIHWVQQAPGKGLEWMGLVDPQDGESEYAQKFQGKVTITADTSIDTSYLEVTSLRFDDTAFYFCATRGMSGAFDRWGQGTLVTVSS
VL: DIVMTQSPDSLAVSLGERATINCKSSQSILSTSNNKNYLAWYQQKPGQPPKLLIYWASTRESGVPDRFSGGGSGTDFTLTISSLQAEDVAVYYCQQYYRTAYTTPIYTFGQGTKLEIK
[2]
  binding signal, bead assay (fold over isotype): 1280

B3: antibody 267 (antibody, V domains shown)
VH: EVHLVQSGAEMKKPGATVKISCKVSGNTFIDHYIQWVQQAPGKGFEWMGLVDPEDGETIYAEKFQGRVTITADTSRDTAYMELSSLKSEDTAVYYCGTHGDYLDYWGQGTLVTVSS
VL: FYELTQPSSVSVSPGQTALITCSGDVVAKKYARWFQQKAGQAPVLVIYKDTERPSGIPERISGSSSGTTVTLTISGAQVEDEADYYCYSATDNNLVFGGGTKVTVL
[1]
  median fluorescence intensity, fold over isotype control: 16.9 fold over isotype

B4: antibody 303 (antibody, V domains shown)
VH: QVQLVESGGGVVQPGRSLRLSCAASGFNLSSYAMHWVRQASGKGLEWVSLISYDGSIKYYADSVKGRFTVSGDNSKNMLFLQMNSLRADDSALYYCVRGGVSGPNAFDIWGQGTTVTVSS
VL: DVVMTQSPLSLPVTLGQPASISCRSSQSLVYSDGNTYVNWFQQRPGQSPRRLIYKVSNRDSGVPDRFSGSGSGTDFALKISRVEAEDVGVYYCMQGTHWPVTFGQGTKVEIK
[2]
  binding signal, bead assay (fold over isotype): 341

B5: antibody 290 (antibody, V domains shown)
VH: QVHLVQSGAEVKKPGASVKVSCAASGYTFNNYGVSWVRQAPGQGLEWMGWISASNGNTKYAQNLQGRVTMTTDTSTSTAYMELRSLRSDDTAVYYCARDLVGPTAPNYYYGMDVWGQGTAVTVSS
VL: QSVLTQPPSVSGAPGQRVTISCTGSSSSIGAGYDVHWYQQLPGTAPKLLIYANSNRPSGVPDRLSGSKSGTSASLAITGLQAEDEADYYCQSYDSSLSGYVFGTGTKVTVL
[1]
  median fluorescence intensity, fold over isotype control: 1.25 fold over isotype

B6: antibody 276 (antibody, V domains shown)
VH: QVQLQESGPGLVKPSQTLSLTCTVSGDSISSGGYYWSWIRQHPGKGLEWIGYIYYSGSAYYNPSLKSRVTISLDTSKNQFSLKLSSVTAADTAVYYCARDSVAGFSIFDYWGQGTLVTVSS
VL: SSELTQDPAVSVALGQTVRITCQGDSLRSYYASWYQQKPGQAPVRVIYGKNNRPSGIPDRFSGSSSGNTASLTITGAQAEDEADYYCNSWDSSGNHVVFGGGTKLTVL
[2]
  binding signal, bead assay (fold over isotype): 748

B7: antibody 273 (antibody, V domains shown)
VH: QVQLVQSGAEVKKPGASVKVSCKVSGYTLTELSMHWVRQAPGKGLEWMGGFDPEDGETIYAQKFQGRVTMTEDTSTDTAYMELSSLRSEDTAVYYCATAPGYYDSSAPQPINWFDPWGQGTLVTVSS
VL: QSALTQPASVSGSPGQSITISCTGTSSDVGSYNLVSWYQQHPGKAPKLMIYEVSKRPSGVSNRFSGSKSGNTASLTISGLQAEDEADYYCCSYAGSSTLVFGGGTKLTVL
[1]
  median fluorescence intensity, fold over isotype control: 1.23 fold over isotype

B8: antibody 273 (antibody, V domains shown)
VH: QVQLVQSGAEVKKPGASVKVSCKVSGYTLTELSMHWVRQAPGKGLEWMGGFDPEDGETIYAQKFQGRVTMTEDTSTDTAYMELSSLRSEDTAVYYCATAPGYYDSSAPQPINWFDPWGQGTLVTVSS
VL: QSALTQPASVSGSPGQSITISCTGTSSDVGSYNLVSWYQQHPGKAPKLMIYEVSKRPSGVSNRFSGSKSGNTASLTISGLQAEDEADYYCCSYAGSSTLVFGGGTKLTVL
[2]
  binding signal, bead assay (fold over isotype): 924

B9: antibody 288 (antibody, V domains shown)
VH: EVQLVESGGGLVQPGGSLRLSCAASGFTFSSYDMHWVRQATGKGLEWVSAIGTAGDTYYPGSVKGRFTISRENAKNSLYLQMNSLRAGDTAVYYCARGANRDYDILTGYYSYYYYGMDVWGQGTTVTVSS
VL: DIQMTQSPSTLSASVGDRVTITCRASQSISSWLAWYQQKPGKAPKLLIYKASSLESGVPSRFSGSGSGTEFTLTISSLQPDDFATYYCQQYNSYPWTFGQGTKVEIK
[1]
  median fluorescence intensity, fold over isotype control: 1 fold over isotype

B10: antibody 260 (antibody, V domains shown)
VH: EVQLVESGGGLVQPGRSLRLSCAASGFTFDYYAMHWVRQAPGKGLEWVSGISWNSGTIGYADSVKGRFTISRDNAKNSLYLQMNSLRAEDTALYYCAKDSRPSGRYYYGMDVWGQGTTVTVSS
VL: not shown
[1]
  median fluorescence intensity, fold over isotype control: 108 fold over isotype

B11: antibody 260 (antibody, V domains shown)
VH: EVQLVESGGGLVQPGRSLRLSCAASGFTFDYYAMHWVRQAPGKGLEWVSGISWNSGTIGYADSVKGRFTISRDNAKNSLYLQMNSLRAEDTALYYCAKDSRPSGRYYYGMDVWGQGTTVTVSS
VL: not shown
[2]
  binding signal, bead assay (fold over isotype): 724

B12: antibody 270 (antibody, V domains shown)
VH: QVQLVQSGAEVKRPGTSVKVSCKTSGYTFTDHFIHWVRQAPGRRLEWMGWINPNSGGTNYAQNFQGRVTMTRDTSITTAYMDLTRLTSDDTAIYYCAREAAYGSGNLNWFDPWGQGTRVTVSS
VL: NFMLTQPHSVSESPGKTVTISCTGSSGSIAANYVHWYQQRPGSAPRTVIYEDNQRPSGVPDRFSGSIDSSSNSASLTISGLKTEDEADYYCQSYDGDSWVFGGGTKLTVL
[1]
  median fluorescence intensity, fold over isotype control: 1.34 fold over isotype

B13: antibody 264 (antibody, V domains shown)
VH: QVHLVESGGGVVQPGRSLRLSCAASGFTLTSYAMHWVRQAPGKGLEWVALISYDGSVKKYAESVKGRITVSGDNSRNTLHLQINTLRADDTAVYYCVRGGVSGPNSFDLWGQGTMVTVSS
VL: DVVMTQSPLSLPVTLGQPASISCRSSQSLEYSDGNTYVNWFQQRPGQSPRRLIYQVSNRASGVPDRFSGSGSGTDFTLQISRVEAEDVGIYYCMQGTHWPVTFGQGTKVEIK
[2]
  binding signal, bead assay (fold over isotype): 598

B14: antibody 259 (antibody, V domains shown)
VH: EVQLVQSGAEVKKPGATVKISCKVSGYTFTDYYMHWVQQAPGKGLEWMGLVDPEDGETIYAEKFQGRVTITADTSTDTAYMELSSLRSEDTAVYYCATDLLSWKLYCSGGSCPQMDVWGQGTTVTVSS
VL: DIQMTQSPSSLSASVGDRVTITCRASQGIRNDLGWYQQKPGKAPKRLIYAASSLQSGVPSRFSGSGSGTEFTLTISSLQPEDFATYYCLQHNSYPQTFGQGTKLEIK
[1]
  median fluorescence intensity, fold over isotype control: 1.03 fold over isotype

B15: antibody 263 (antibody, V domains shown)
VH: EVQLVQSGAEVKKPGATVKISCKVSGYTFTDYYMHWVQQAPGKGLEWMGLVDPEDGETIYAEKFQGRVTITADTSTDTAYMELSSLRSDDTAVYYCTTDLAFTIFGGRRGFDPWGQGTLVTVSS
VL: DIQLTQSPSFLSASVGDRVTITCRASQGISSYLAWYQQKPGKAPKLLIYAASTLQSGVPSRFSGSGSGTEFTLTISSLQPEDFATYYCQQLNSYDFGQGTRLEIK
[1]
  median fluorescence intensity, fold over isotype control: 1.13 fold over isotype

B16: antibody 263 (antibody, V domains shown)
VH: EVQLVQSGAEVKKPGATVKISCKVSGYTFTDYYMHWVQQAPGKGLEWMGLVDPEDGETIYAEKFQGRVTITADTSTDTAYMELSSLRSDDTAVYYCTTDLAFTIFGGRRGFDPWGQGTLVTVSS
VL: DIQLTQSPSFLSASVGDRVTITCRASQGISSYLAWYQQKPGKAPKLLIYAASTLQSGVPSRFSGSGSGTEFTLTISSLQPEDFATYYCQQLNSYDFGQGTRLEIK
[2]
  binding signal, bead assay (fold over isotype): 722

B17: antibody 281 (antibody, V domains shown)
VH: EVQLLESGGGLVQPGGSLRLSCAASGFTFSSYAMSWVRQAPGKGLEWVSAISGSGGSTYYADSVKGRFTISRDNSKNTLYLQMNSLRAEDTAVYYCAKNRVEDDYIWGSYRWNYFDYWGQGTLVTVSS
VL: QSALTQPASVSGSPGQSITISCTGTSSDVGSYNLVSWYQQHPGKAPKLMIYEVSKRPSGVSNRFSGSKSGNTASLTISGLQAEDEADYYCCSYAGSSTHVVFGGGTKLTVL
[2]
  binding signal, bead assay (fold over isotype): 570
